Experimental data taken from the supplement of paper PMC12764529.
± gives the half width of the 95% confidence interval.

Experiments:
[1] = folding stability dG unfold (combined trypsin and chymotrypsin); higher = more stable
Procedure, shortened: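 How resistant each design was to proteolysis was captured as K50, inferred by Bayesian fitting of sequencing counts. Unfolding free energy was then derived relative to a sequence-predicted unfolded-state K50 and a shared folded-state K50, per protease or combined. Digestion used trypsin and chymotrypsin at 11 threefold-diluted concentrations plus a no-protease condition, on mini-proteins under 80 residues without cysteine in a PA-tagged cDNA display construct. Designs were kept only when AlphaFold2 dimer inter-PAE was above 15.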

[2] = folding stability dG unfold from trypsin proteolysis; higher = more stable
Protocol: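 Folding stability of de novo designed mini-proteins (<80 aa, no Cys; designed by TrROS, TrMRF, ProteinMPNN and the joint model) was measured by cDNA display proteolysis with trypsin and chymotrypsin. Each protease was used at 11 concentrations in a threefold dilution series plus a no-protease condition. K50 was inferred by Bayesian fitting of sequencing counts, and dG unfold was derived against a sequence-predicted unfolded-state K50 (Tsuboyama et al. method). Sequences shown include variable-length N-terminal GS-type padding (SAGGSAGG...) inside a display construct carrying a PA tag. Rows were kept only if the AF2 dimer inter-PAE was >15, to exclude likely homo-oligomers.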

| Sequence | folding stability dG unfold [1] [kcal/mol] | folding stability dG unfold [2] [kcal/mol] |
| --- | --- | --- |
| SAGGSATIKEGQVITRTVTDPSTGKEYEVEITIKKVTKYPASPEGILREEYEIEVKKSPKVSPLKLSAGGSA [r15_248_JUSTAS] | < -1 | 0.112 ± 0.12 |
| SAGGSAVVEIPIPPSSLDVRALIVPTDGPLTTVLVEETLPDGTPRVRLYRYDPARGEVRPLAEELPSAGGSA [r2_402_JUSTAS] | < -1 | -0.671 ± 0.17 |
| SAGGSAYGKKKNDPDGNPKYEMEPQPTIEVPVTIPIFDNNNNPLLEIPIPASMPISDINDEIKDLFSAGGSA [r15_309_TrROS] | < -1 | -1.57 ± 0.7 |
| SAGGSENPNDPRPVVPVGVAVVDIEIHGHPDMTEEERLAAVEEAVEALEGLEVEHPDGHPTILLAGSAGGSA [r2_149_TrMRF] | < -1 | -0.161 ± 0.071 |
| SAGGSGMRKFSPEEAKKKEVVITIPVVTYSPSLKFSPVTVPVTVSGPVTSDEEAKEKVEKAVKELASAGGSA [r2_244_JUSTAS] | < -1 | -1.03 ± 0.48 |
| SAGGSLPADAEVTEVVEDPSKGVVTVKVTVRDSEGKVVEERTVVTPVEPVPPLSPENLKKNLLLTLLSAGGS [r16_697_JUSTAS] | -0.741 ± 0.94 | 0.249 ± 0.12 |
| SAGGSLPVVDGPSDLVETTVYEDGTIEIKVERAEPPGVPTVRTLTITLEPPVGPPKVPPGNPKYLGSAGGSA [r2_368_JUSTAS] | < -1 | -1.08 ± 0.53 |
| SAGGSMTLTEVSYEGDKVVTTTTTFTPGAPALTSSTTTTPIPPVPLGPRPVIFFEPVSEMRPLALVSAGGSA [r2_332_JUSTAS] | 0.034 ± 0.17 | 0.628 ± 0.051 |
| SAGGSMTLTFRKPDTDVTSEKVTKPPGGPELVDLRITPPDGSGEKRTLTPEELAKEFGLSLEEILESAGGSA [r2_262_JUSTAS] | < -1 | -0.183 ± 0.31 |
| SAGGSPTIDITPEVFEELKKKGVTPDKESFNITASLPDGTVYEGTITLPPSNPNIPFEYKPVDKPLESAGGS [r16_497_JUSTAS] | -0.515 ± 0.21 | -0.22 ± 0.061 |
| SAGGSRQVIEWEFKDPKNGKPFEISIEYDEENGVPMVEIRDRNGEPNAVVPVPPDNADEALEKFGISAGGSA [r2_115_TrROS] | < -1 | -0.903 ± 0.46 |
| SAGGSVRIESIKWKRPPNGMFKIEIHVEAPPGDPDDPEKQERQAESVAKPIAKELQDEFGFKPIGPSAGGSA [r2_306_TrROS] | < -1 | -0.774 ± 0.99 |
| SAGGWMPIEDLKDIPENMPPGYKITIRNPGNGQEGTFEYNKDGGIKIEDPGKPVEIPPGAYIDEIEPSAGGS [r8_162_TrROS] | -0.679 ± 0.71 | 0.654 ± 0.12 |
| SAGGWRLNINFPPDNIEKIVEKLRDEFPGWEIKPDKIEYNPDDGQYTIPIEVKSKNPRAAEKIQDAIQSAGG [r13_539_TrROS] | -0.955 ± 0.39 | 0.154 ± 0.14 |
| SAGKFKITSIKPLYVTTPADAPPVKKPYLVIELDAEDPEKARELAEKLTGAPVLVVEDPETGTATIVIDSAG [r5_907_TrMRF] | -0.357 ± 0.17 | 0.121 ± 0.082 |
| SAGKITIEYDKETNTVTVTIEIEIEVINEDGSIEKKKITITVKVKVDKKTNKVELLSLDEILKKLEELLSAG [r5_239_TrROS_Hall] | 3.81 ± 0.36 | 2.92 ± 0.2 |
| SAGMYTVLETRTVNGRTVTLIDVPERPLTVTVTVDRDPSGRRTVTVNVEGEVKEILEKANPDIDELTLESAG [r5_933_JUSTAS] | -0.15 ± 0.2 | 0.456 ± 0.096 |
| SAGPKIVEVKPSNGKLEITVEIPVPGAPVLFLNPAKNATIESDPNGRITITLDSEGEYEIIIGNPVFDSAGG [r19_227_TrMRF] | 0.0526 ± 0.087 | 0.394 ± 0.026 |
| SAGSMPVESTSERKLEKDGVATVTTTSYPDASPGGTDTVTVTLHPGESESATTTYTQPPGAPPLTVSLESAG [r5_47_JUSTAS] | < -1 | -1.05 ± 0.27 |
| SAGVEELAEKIAKELEGEDFEVEAEVDPEKGTITVVVKTPDYVVVKEIYIDPKNDKPVMDVKVFKPNESAGG [r19_2_TrMRF] | -0.954 ± 0.7 | 0.241 ± 0.059 |
| SAGWRRIPPGRPIRIRLKGNGEEITIPIPEGAEVEPDPDNNNVMIWFREDGKEWSMNFKNGRIDDIEPVSAG [r5_22_TrROS] | < -1 | -0.194 ± 0.32 |

| Sequence | folding stability dG unfold [1] [kcal/mol] | folding stability dG unfold [2] [kcal/mol] |
| --- | --- | --- |
| SALPPEEVKKLARDIMREFNPDNGFKPEDVDVDPNEGTIMVDWRMPDPNGKRHRMPFQIQVDKDGKIKISAG [r14_183_TrROS] | < -1 | -0.306 ± 0.36 |
| SAMTLTVPPSLSATDAAGNAIPPSLSIEVEKVTPLPETGKVVAEVKITDPETGETTTRPLTITLPPGEASAG [r14_258_JUSTAS] | 0.506 ± 0.19 | 0.827 ± 0.048 |
| SDILERAAEKGVDEIHIMLQPNQIELIKRLQDRGAKIEIHFPPGVPKEYLKKLPGFKVDKVEWMPPDDMPSA [r9_671_TrROS] | < -1 | -0.928 ± 0.56 |
| SDVNIKPEKVDPNGIFTVEIPVDNNNVDKLREIINEIFPNFEPTEVKPNPESGYHEIIMRVPDGKAFEFSSA [r9_1164_TrROS] | -0.55 ± 0.14 | -0.141 ± 0.04 |
| SGMTTSLGKSTTTTLPDGTTVKTEVKLTRPSSGTVVVTTDTTTVTPGTGTTTTTPTTTVVPVPPGVPGLLSA [r9_709_JUSTAS] | < -1 | -0.522 ± 0.051 |
| SGNSLNEKGESYPITVKAPDPNVTPEQVKAALEKAGAKVLEIKRPPKGSTLTVSVEITDPEKVKEAFEKLSA [r9_1154_JUSTAS] | < -1 | -1.05 ± 0.44 |
| SGSPSTPVTITVEFPPRLTTVLYREPTRPPLGYLLVPEPSRTETITVPVSEVAAVKAELEPRGMTVTVTASA [r9_167_JUSTAS] | < -1 | -0.69 ± 0.33 |
| SITASAKHPEEAIELAEKLKKELEKLLGPDTKVPITLYDDKGNPATFPITLKKKKPKVIYDPEKGLYRDESA [r9_596_TrMRF] | -0.332 ± 0.55 | 0.042 ± 0.25 |
| SKITITIEEEEVEVNGKKYKVFKVTATVTVTEYKFKDGKLVEKKTKTKTITVRIVLDKNGKIVKIEPLPDSA [r9_829_TrROS_Hall] | > 6 | 4.33 ± 0.32 |
| SKMKIKIEITEVYPEGKTIVVKAEIEIDGKTIEMEMTIKLPNGEEYRIRMRFVRRKDGRLEMEIEVEKLPSA [r9_255_TrROS_Hall] | > 6 | 5.33 ± 0.51 |
| SKVLELLKELAKKLGATITEVKVEKLEDGTVKVTATITVTYLDKNGKPVKTETLTLTITVKNGKITEIKLSA [r9_519_TrROS_Hall] | > 6 | 4.66 ± 0.55 |
| SMGLTKKERVITIVKEAYAKNPDKKITLRYADIEATTPEKMSAEEIEKLLKEVTGIKDIKIYPVKPDDPESA [r9_738_TrMRF] | < -1 | 0.0464 ± 0.25 |
| SMKALVLELPEEKVVVVFETDELKVVPIPVKDKEEAKEKIEELVKELEEETGKKPEVVVVEVDEDEELPVSA [r9_786_TrMRF] | < -1 | -0.0691 ± 0.16 |
| SMKIKITAKTEEEREKAKKLLEEIAKELNIEIKIEKIEVIPKPKPEKVELSEEEKKKLKELEEEGLIEEESA [r9_472_TrROS_Hall] | < -1 | 0.578 ± 0.059 |
| SMKKTLTEKIEGVLPEEEAERYLEEYIASRPWAEKVEVKPEIKPIFDEKGNKLVKVKTTITVTISEEKLKSA [r9_1006_JUSTAS] | < -1 | -0.776 ± 0.95 |
| SNPWQIKFRNPNRPVEIPIQMNPDDGYVGISVRMRKPGKPKTHTITYKVKNIEDLLDHLEDLPPGFEIEPSA [r9_713_TrROS] | -0.0771 ± 0.45 | 0.435 ± 0.27 |
| SPAVRPLSAEFYDPRYTVEAPVYESEEGEPVLNIRFLVPEYELEIPFPLEDPEAVFESFAEDGVSLTLTDSA [r9_384_TrMRF] | -0.723 ± 0.17 | 0.0201 ± 0.088 |
| SPIVTDLPPKEATRVEVEALVEELEAKGEPPREVVVYDPSRGVPLATIPVTSREELLAAVEAGRPFRVLLSA [r9_718_JUSTAS] | < -1 | -0.697 ± 0.31 |
| SSVITNKGSLTITKTTLPDGTVVITITDPNGGRTTTITIPADSDGEATVTPTGSGNAATSTIPVSSLKLSSA [r9_1071_JUSTAS] | 0.183 ± 0.21 | 0.505 ± 0.096 |
| VEFEEIETTFTLAAPGGSLVDVDLKTTKKDPKNGKVYIEGTLTTVDPGGVPRTLPTKRVVSPEELKQLVSES [r1_371_JUSTAS] | -0.318 ± 0.49 | 0.143 ± 0.19 |
